Measured values reported in the RNAGym collection of RNA variant scans (doi:10.7554/elife.80360).

B1: CPEB3 Ribozyme (parent)
chain: GGGGGCCACAGCAGAAGCGUUCACGUCGCGGCCCCUGUCAGAUUCUGGUGAAUCUGCGAAUUCUGCUGU

Variants of: B1
Assay: self-cleavage, relative activity (ratio to wild type); higher = more cleavage; co-transcriptional

Variant | self-cleavage
A10C G56U | 0.936
A10C G58A | 0.961
A10C U21C | 0.905
A10C U21G | 0.535
A10C U36A | 0.226
A10C U36C | 0.966
A10C U36G | 0.246
A10C U38A | 0.869
A10C U38G | 0.248
A10C U43A | 0.892
A10C U43C | 0.965
A10C U43G | 0.808
A10C U44G | 1.02
A10C U46C | 0.98
A10C U49G | 1.04
A10C U53G | 0.927
A10C U55G | 0.799
A10C U62A | 0.926
A10C U64A | 0.779
A10C U64C | 0.769
A10C U67A | 1.02
A10G A13G | 0.233
A10G A13U | 0.13
A10G A23C | 0.939

Variant | self-cleavage
A10G A40U | 0.301
A10G A42C | 0.668
A10G A52G | 1.01
A10G A59G | 0.925
A10G A60C | 0.176
A10G A60U | 0.221
A10G C12A | 0.356
A10G C12G | 0.742
A10G C12U | 0.948
A10G C18A | 0.0954
A10G C18G | 0.0572
A10G C18U | 0.264
A10G C22A | 0.141
A10G C27U | 0.613
A10G C29A | 0.324
A10G C29U | 0.126
A10G C32A | 0.847
A10G C32U | 0.939
A10G C33G | 0.854
A10G C33U | 0.953
A10G C34U | 0.982
A10G C35A | 0.197
A10G C35G | 0.496
A10G C35U | 0.892

Variant | self-cleavage
A10G C45G | 0.839
A10G C66A | 0.385
A10G G14C | 0.0631
A10G G17C | 0.106
A10G G25A | 0.0673
A10G G25U | 0.132
A10G G28C | 0.169
A10G G30A | 0.96
A10G G30U | 0.704
A10G G31C | 0.322
A10G G37A | 0.219
A10G G37U | 0.11
A10G G41A | 0.37
A10G G41C | 0.326
A10G G47U | 0.919
A10G G50A | 0.949
A10G G58U | 0.947
A10G G65A | 0.337
A10G G65U | 0.303
A10G U20A | 0.0584
A10G U26A | 0.933
A10G U26C | 0.351
A10G U26G | 0.877
A10G U38A | 0.784

Variant | self-cleavage
A10G U38C | 0.906
A10G U38G | 0.182
A10G U44G | 0.71
A10G U46A | 0.91
A10G U53A | 0.651
A10G U53C | 0.333
A10G U55G | 0.36
A10G U61A | 0.6
A10G U62C | 0.376
A10G U64G | 0.398
A10G U67C | 0.967
A10U A13G | 0.56
A10U A13U | 0.701
A10U A15C | 0.746
A10U A16G | 0.924
A10U A16U | 0.877
A10U A40G | 0.951
A10U A42C | 0.937
A10U A51G | 0.955
A10U A51U | 1.04
A10U A52U | 1.02
A10U A59G | 0.968
A10U A60G | 0.953
A10U C12A | 0.707

Variant | self-cleavage
A10U C12U | 0.913
A10U C18A | 0.222
A10U C18U | 0.883
A10U C22A | 0.208
A10U C27A | 0.272
A10U C27U | 0.547
A10U C29A | 0.722
A10U C34U | 0.985
A10U C35A | 0.245
A10U C35G | 0.64
A10U C45G | 0.949
A10U C54A | 0.902
A10U C54G | 0.958
A10U C57A | 0.273
A10U C63U | 0.969
A10U C66A | 0.845
A10U C66G | 0.924
A10U G11A | 0.873
A10U G11C | 0.892
A10U G14U | 0.654
A10U G17A | 0.547
A10U G25A | 0.171
A10U G28A | 0.139
A10U G28C | 0.137

Variant | self-cleavage
A10U G28U | 0.14
A10U G30U | 0.733
A10U G31A | 0.976
A10U G31U | 0.895
A10U G37C | 0.3
A10U G41C | 0.859
A10U G48A | 1.02
A10U G48C | 1.03
A10U G50U | 0.978
A10U G56A | 1.01
A10U G56U | 0.984
A10U G58A | 0.975
A10U G65A | 0.842
A10U G65U | 0.796
A10U G68A | 1.05
A10U G68U | 0.982
A10U U26G | 0.994
A10U U36C | 0.924
A10U U36G | 0.195
A10U U43A | 0.941
A10U U43C | 0.975
A10U U43G | 0.831
A10U U44A | 0.967
A10U U46A | 0.954

Variant | self-cleavage
A10U U46C | 0.983
A10U U53C | 0.871
A10U U55C | 0.9
A10U U61A | 0.911
A10U U61G | 0.78
A10U U62A | 0.882
A10U U62C | 0.757
A10U U64A | 0.8
A10U U64G | 0.897
A10U U67A | 0.997
A10U U67G | 1.01
A10U U69C | 1.07
A10U U69G | 1.06
G11A A13C | 0.182
G11A A13G | 0.184
G11A A15C | 0.849
G11A A40G | 0.726
G11A A40U | 0.357
G11A A51C | 0.757
G11A A52G | 0.928
G11A A59C | 0.3
G11A A59G | 0.859
G11A A60C | 0.205
G11A C12U | 0.549

Variant | self-cleavage
G11A C22G | 0.119
G11A C27A | 0.2
G11A C27G | 0.139
G11A C27U | 0.107
G11A C32U | 0.95
G11A C33A | 0.853
G11A C34A | 0.715
G11A C34G | 0.695
G11A C35G | 0.352
G11A C45A | 0.821
G11A C45U | 0.906
G11A C57G | 0.262
G11A C63U | 0.707
G11A C66A | 0.818
G11A C66G | 0.917
G11A G14U | 0.126
G11A G19A | 0.103
G11A G25A | 0.126
G11A G28A | 0.16
G11A G28C | 0.157
G11A G28U | 0.171
G11A G31A | 0.838
G11A G37U | 0.156
G11A G48A | 0.906

Variant | self-cleavage
G11A G50A | 0.852
G11A G56C | 0.437
G11A G65C | 0.557
G11A U20A | 0.157
G11A U21G | 0.285
G11A U26C | 0.863
G11A U26G | 0.734
G11A U43A | 0.442
G11A U43C | 0.658
G11A U43G | 0.4
G11A U44A | 0.697
G11A U49C | 0.903
G11A U53A | 0.533
G11A U55C | 0.493
G11A U62G | 0.331
G11A U67A | 0.934
G11A U69C | 1.03
G11C A13C | 0.175
G11C A13G | 0.558
G11C A13U | 0.209
G11C A15G | 0.627
G11C A16C | 0.276
G11C A16U | 0.49
G11C A23C | 0.672

Variant | self-cleavage
G11C A23G | 0.626
G11C A42C | 0.151
G11C A59G | 0.718
G11C A60C | 0.299
G11C C12G | 0.211
G11C C12U | 0.452
G11C C18G | 0.0784
G11C C22G | 0.18
G11C C24G | 0.114
G11C C27G | 0.104
G11C C33A | 0.547
G11C C33U | 0.827
G11C C35A | 0.205
G11C C35U | 0.758
G11C C39U | 0.399
G11C C45G | 0.767
G11C C54A | 0.252
G11C C57A | 0.252
G11C C63U | 0.416
G11C C66G | 0.943
G11C C66U | 0.939
G11C G17A | 0.103
G11C G19A | 0.0742
G11C G19U | 0.158

Variant | self-cleavage
G11C G25U | 0.0946
G11C G30U | 0.225
G11C G31C | 0.167
G11C G31U | 0.536
G11C G37U | 0.165
G11C G41C | 0.257
G11C G41U | 0.238
G11C G48U | 0.912
G11C G50C | 0.748
G11C G56C | 0.176
G11C G58C | 0.751
G11C G58U | 0.896
G11C G65A | 0.559
G11C G68U | 0.881
G11C U20G | 0.169
G11C U21A | 0.827
G11C U38C | 0.7
G11C U43G | 0.279
G11C U44C | 0.459
G11C U44G | 0.662
G11C U49C | 0.803
G11C U49G | 0.866
G11C U53G | 0.415
G11C U55A | 0.271

Variant | self-cleavage
G11C U55G | 0.165
G11C U61C | 0.203
G11C U64G | 0.435
G11C U69A | 0.921
G11C U69C | 1.01
G11C U69G | 0.97
G11U A15C | 0.531
G11U A15G | 0.779
G11U A16G | 0.572
G11U A40U | 0.256
G11U A42U | 0.581
G11U A51C | 0.669
G11U A52C | 0.761
G11U A52U | 0.851
G11U A59C | 0.35
G11U A59U | 0.395
G11U A60C | 0.234
G11U A60G | 0.497
G11U A60U | 0.281
G11U C24A | 0.308
G11U C32A | 0.773
G11U C33U | 0.948
G11U C34A | 0.694
G11U C35A | 0.16

Variant | self-cleavage
G11U C45G | 0.772
G11U C54A | 0.361
G11U C54G | 0.412
G11U C54U | 0.819
G11U C63A | 0.418
G11U G14A | 0.131
G11U G25C | 0.0857
G11U G28A | 0.125
G11U G30U | 0.263
G11U G31A | 0.746
G11U G41C | 0.197
G11U G47U | 0.941
G11U G48A | 0.917
G11U G48U | 0.939
G11U G50A | 0.896
G11U G65A | 0.682
G11U G68A | 0.932
G11U U21C | 0.541
G11U U21G | 0.196
G11U U26G | 0.635
G11U U36A | 0.164
G11U U38A | 0.687
G11U U38G | 0.178
G11U U43C | 0.768

Variant | self-cleavage
G11U U53A | 0.562
G11U U55A | 0.36
G11U U55C | 0.302
G11U U61C | 0.271
G11U U64C | 0.498
G11U U64G | 0.447
G11U U69C | 1.05
C12A | 0.806
C12A A13U | 0.15
C12A A16U | 0.27
C12A A23C | 0.6
C12A A42U | 0.402
C12A A51C | 0.544
C12A A51U | 0.628
C12A A60C | 0.264
C12A C18A | 0.139
C12A C27G | 0.171
C12A C29A | 0.121
C12A C33U | 0.671
C12A C34U | 0.834
C12A C35G | 0.189
C12A C45U | 0.72
